This note sets out measurements from IntAct's records for PubMed 19666841.

Sequences and labels used below:
B1: Glycerol-3-phosphate dehydrogenase 1-like protein (Homo sapiens), Q8N335 (parent)
chain: MAAAPLKVCIVGSGNWGSAVAKIIGNNVKKLQKFASTVKMWVFEETVNGRKLTDIINNDHENVKYLPGHKLPENVVAMSNLSEAVQDADLLVFVIPHQFIHRICDEITGRVPKKALGITLIKGIDEGPEGLKLISDIIREKMGIDISVLMGANIANEVAAEKFCETTIGSKVMENGLLFKELLQTPNFRITVVDDADTVELCGALKNIVAVGAGFCDGLRCGDNTKAAVIRLGLMEMIAFARIFCKGQVSTATFLESCGVADLITTCYGGRNRRVAEAFARTGKTIEELEKEMLNGQKLQGPQTSAEVYRILKQKGLLDKFPLFTAVYQICYESRPVQEMLSCLQSHPEHT

The variants in this test derive from B1. The settings on record: with scn5a_human SCN5A.
MAAAPLKVCIVGSGNWGSAVAKIIGNNVKKLQKFASTVKMWVFEETVNGRKLTDIINNDHENVKYLPGHKLPENVVAMSNLSKAVQDADLLVFVIPHQFIHRICDEITGRVPKKALGITLIKGIDEGPEGLKLISDIIREKMGIDISVLMGANIANEVAAEKFCETTIGSKVMENGLLFKELLQTPNFRITVVDDADTVELCGALKNIVAVGAGFCDGLRCGDNTKAAVIRLGLMEMIAFARIFCKGQVSTATFLESCGVADLITTCYGGRNRRVAEAFARTGKTIEELEKEMLNGQKLQGPQTSAEVYRILKQKGLLDKFPLFTAVYQICYESRPVQEMLSCLQSHPEHT [E83K]: the “effect of a mutation on the interaction” value was “with no effect”.
The result for MAAAPLKVCIVGSGNWGSAVAKIIGNNVKKLQKFASTVKMWVFEETVNGRKLTDIINNDHENVKYLPGHKLPENVVAMSNLSEAVQDADLLVFVIPHQFIHRICDEITGRVPKKALGITLIKGIDEGPEGLKLISDIIREKMGIDISVLMGANIANEVAAEKFCETTIGSKVMENGLLFKELLQTPNFRITVVDDADTVELCGALKNIVAVGAGFCDGLRCGDNTKAAVIRLGLMEMIAFARIFCKGQVSTATFLESCGVADLITTCYGGRNRRVAEAFVRTGKTIEELEKEMLNGQKLQGPQTSAEVYRILKQKGLLDKFPLFTAVYQICYESRPVQEMLSCLQSHPEHT [A280V] reads “with no effect”.
